In US7427404:

These substances were tested against monoclonal anti-S1 antibody 1B7 (assay: competition RIA: 1B7 coated on plate, 125I-PT displaced by unlabelled toxin).

Substance	Ka [M⁻¹]
PT-13L/129G (from UniProt P04978 28-226; P04979 29-227; P0A3R5 43-152; P04981 35-133)	1.3e+08
PT-26I/129G (from UniProt P04978 28-226; P04979 29-227; P0A3R5 43-152; P04981 35-133)	5.5e+07
PT-129G (from UniProt P04978 28-226; P04979 29-227; P0A3R5 43-152; P04981 35-133)	2.1e+08
